Reference: PMC4140853 (PLoS Pathogens, 2014)

Experiments:
[1] = molecular target: HLA-DQ2 (A1*0501/B1*0201) with the CLIP1 peptide covalently linked to the beta chain, soluble, Fos-Jun leucine zipper; assay: BLI
[2] = molecular target: HLA-DQ2 (A1*0501/B1*0201) with the CLIP1 peptide covalently linked to the beta chain, soluble, Fos-Jun leucine zipper; assay: BLI; Octet RED96; site-specifically biotinylated HLA-DQ2 (CLIP1) immobilised on streptavidin (SA) tips; analyte gp42 or preformed gHgL/gp42 complex; equilibrium (steady state) analysis of the same data
[3] = molecular target: T1, EBV gHgL (soluble gH residues 18-679 / gL residues 24-137 heterodimer) (Epstein-Barr virus, UniProt P03231;P03212); assay: cell-based or functional assay
[4] = molecular target: T1, EBV gHgL (soluble gH residues 18-679 / …); assay: BLI; conditions: both partners purified
[5] = molecular target: T1, EBV gHgL (soluble gH residues 18-679 / …); assay: BLI; conditions: both partners purified; remark: listed apart in the source
[6] = molecular target: T1, EBV gHgL (soluble gH residues 18-679 / …); assay: BLI; Octet RED96; biotinylated gHgL immobilised on streptavidin (SA) tips, soluble gp42 as analyte; equilibrium analysis of the same data; conditions: both partners purified
[7] = molecular target: T1, EBV gHgL (soluble gH residues 18-679 / …); assay: SEC; Superdex 200 gel filtration of purified proteins and their mixtures; 20 mM Tris, 150 mM NaCl, pH 7.4; peak components verified by SDS-PAGE (data not shown); conditions: both partners purified

EBV gp42 C114S single mutant, soluble (residues 33-223) (from UniProt P03205 33-223) (natural protein)
KD1 (2:1 heterogeneous ligand fit, primary component) [1]: 88.8 nM | KD2 (2:1 heterogeneous ligand fit, secondary component) [1]: 3.45 nM | Kd [2]: 97 nM

EBV gp42 C114S/I159C double mutant (referred to as I159C), soluble (residues 33-223) (from UniProt P03205 33-223) (natural protein)
KD1 (2:1 heterogeneous ligand fit, primary component) [1]: 59 nM | KD2 (2:1 heterogeneous ligand fit, secondary component) [1]: 1.25 nM | Kd [2]: 29 nM

B1: EBV gp42 I159C (C114S/I159C), reduced with TCEP and alkylated with iodoacetamide (IAA) (natural protein)
chain: GGGRVAAAAITWVPKPNVEVWPVDPPPPVNFNKTAEQEYGDKEVKLPHWTPTLHTFQVPQNYTKANCTYCNTREYTFSYKGSCFYFTKKKHTWNGCFQACAELYPCTYFYGPTPDILPVVTRNLNACESLWVGVYRVGEGNWTSLDGGTFKVYQIFGSHCTYVSKFSTVPVSHHECSFLKPCLCVSQRSNS
modifications: introduced cysteine 159 reduced with TCEP and alkylated with iodoacetamide (IAA)
virus-free cell-cell fusion (luciferase) of CHO cells expressing gB and gHgL with Daudi B cells, triggered by 0.1 or 1.0 µg soluble gp42 protein; activity relative to wt gp42 [3]: < 10 % of wild type

B2: EBV gp42 wild type, soluble (residues 33-223) (natural protein)
chain: GGGRVAAAAITWVPKPNVEVWPVDPPPPVNFNKTAEQEYGDKEVKLPHWTPTLHTFQVPQNYTKANCTYCNTREYTFSYKGCCFYFTKKKHTWNGCFQACAELYPCTYFYGPTPDILPVVTRNLNAIESLWVGVYRVGEGNWTSLDGGTFKVYQIFGSHCTYVSKFSTVPVSHHECSFLKPCLCVSQRSNS
notes: also called gp42 w.t; wt gp42; source: High Five insect cells (baculovirus), secreted, purified (Talon or Ni-NTA, Superdex 200)
t1/2 for dissociation [4]: ~30 min | Kd [5]: 1.41 nM | Kd [6]: 4.1 nM | stoichiometry N [7]: 1 gp42 per gHgL

B3: EBV gp42 C114S/I159C double mutant (referred to as I159C), soluble (residues 33-223) (natural protein)
chain: GGGRVAAAAITWVPKPNVEVWPVDPPPPVNFNKTAEQEYGDKEVKLPHWTPTLHTFQVPQNYTKANCTYCNTREYTFSYKGSCFYFTKKKHTWNGCFQACAELYPCTYFYGPTPDILPVVTRNLNACESLWVGVYRVGEGNWTSLDGGTFKVYQIFGSHCTYVSKFSTVPVSHHECSFLKPCLCVSQRSNS
notes: source: High Five insect cells (baculovirus), secreted, purified (Talon or Ni-NTA, Superdex 200)
Kd [5]: 0.77 nM | koff [5]: 0.000295 s⁻¹ | kon [5]: 381000 M⁻¹ s⁻¹ | Kd [6]: 13 nM

B4: EBV gp42 C114S single mutant, soluble (residues 33-223) (natural protein)
chain: GGGRVAAAAITWVPKPNVEVWPVDPPPPVNFNKTAEQEYGDKEVKLPHWTPTLHTFQVPQNYTKANCTYCNTREYTFSYKGSCFYFTKKKHTWNGCFQACAELYPCTYFYGPTPDILPVVTRNLNAIESLWVGVYRVGEGNWTSLDGGTFKVYQIFGSHCTYVSKFSTVPVSHHECSFLKPCLCVSQRSNS
notes: as for B3
Kd [5]: 1.29 nM | koff [5]: 0.000529 s⁻¹ | kon [5]: 409000 M⁻¹ s⁻¹ | Kd [6]: 6.3 nM
